Experimental findings from US20220259296A1 (Boehringer Ingelheim, published 2022) are described below.

Test [1] has as its target T1, human complement C3 (human, UniProt P01024 23-1663).
T1 construct: mature; Native plasma C3 is processed from one precursor into a beta and an alpha chain; also called native human C3; complement component 3
Kind of test: competition ELISA on human C3; competitor: biotinylated M0251 (panel title 'Competition with M0251'). The procedure:
(§1) M0251, M0228, M0122, M0123 and M0124 were tested in a pairwise combinatorial manner to identify those that target the same region (epitope) on C3. Briefly, one antibody was labelled via biotinylation and incubated together with other antibody clones in a C3 binding ELISA. Those anti-C3 antibodies that competed for the same binding region were considered to share similar epitopes and therefore to have similar functions. This information enables to reduce the number of potential antibody candidates while maintaining epitope diversity. Out of the five antibodies inhibiting all three complement pathways, M0251, M0228 and M0123 were considered to share the same epitope on C3 (FIG. 7D). Inhibiting leads were assumed to bind three different epitopes on C3 (FIG. 7A-7D).
For orientation: ELISA stands for enzyme-linked immunosorbent assay.

Another test addresses T2, cynomolgus monkey C3 (cynomolgus monkey (Macaca fascicularis)).
T2 construct: mature; Native protein from serum; also called cyno C3; cynomolgus C3
The test can be described thus: ELISA, cyno C3 captured from cynomolgus serum by coated polyclonal goat antiserum. The procedure: Antibodies identified as capable of inhibiting all three complement pathways were assessed for their ability to bind cynomolgus monkey C3 in ELISA. Briefly, 96 well ELISA plates were coated with polyclonal goat antiserum deemed to be cross-reactive to cyno C3 and followed by a secondary association with a custom preparation of cynomolgus monkey serum (BioIVT, NB-151558). Serial dilutions of the antibody molecules were added to the ELISA plate and antibodies binding to cyno C3 were detected with a rabbit anti-human Kappa HRP antibody (Abcam, ab202549) or a mouse anti-His Tag HRP antibody (R&D Systems, MAB050H). Leads M0122, M0124 and M0251 show binding in a dose response manner to cynomolgus monkey C3.

The target in test [2] is T1, human complement C3. The test can be described thus: cell-based or functional assay.
The target in test [3] is T1, human complement C3. The test can be described thus: competition ELISA on human C3; competitor: biotinylated M0123 (panel title 'Competition with M0123'). As to the method:
as §1

In test [4] the target is T1, human complement C3. The test can be described thus: biolayer interferometry, human C3.
The target in test [5] is T1, human complement C3. The test can be described thus: direct ELISA, plate coated with purified native human C3. The procedure:
(§2) M0122, M0124 and M0228 were evaluated for their ability to bind both human C3 and C3b in a direct binding ELISA assay (FIG. 8A and FIG. 8B). Briefly, 96 well ELISA plates were coated with purified native human C3 or C3b (Complement Technology, A113 and A114). Serial dilutions of antibody molecules were added to the plate and detected by a rabbit anti-human Kappa HRP antibody (Abcam, ab202549) or a rabbit anti-His Tag HRP antibody (Abcam, ab1187). M0122, M0124 and M0228 show high affinity binding to both human C3 and C3b.

The target in test [6] is T1, human complement C3. Kind of test: competition ELISA on human C3; competitor: biotinylated M0122 (panel title 'Competition with M0122'). The procedure:
as §1

A further test deals with T3, human complement C3b (human, UniProt P01024 23-667; P01024 749-1663).
T3 construct: domain: C3b; Cleavage product of C3 (C3 without C3a)
T3 sequence (P01024 23-667 limits assumed, chain 1 of 2): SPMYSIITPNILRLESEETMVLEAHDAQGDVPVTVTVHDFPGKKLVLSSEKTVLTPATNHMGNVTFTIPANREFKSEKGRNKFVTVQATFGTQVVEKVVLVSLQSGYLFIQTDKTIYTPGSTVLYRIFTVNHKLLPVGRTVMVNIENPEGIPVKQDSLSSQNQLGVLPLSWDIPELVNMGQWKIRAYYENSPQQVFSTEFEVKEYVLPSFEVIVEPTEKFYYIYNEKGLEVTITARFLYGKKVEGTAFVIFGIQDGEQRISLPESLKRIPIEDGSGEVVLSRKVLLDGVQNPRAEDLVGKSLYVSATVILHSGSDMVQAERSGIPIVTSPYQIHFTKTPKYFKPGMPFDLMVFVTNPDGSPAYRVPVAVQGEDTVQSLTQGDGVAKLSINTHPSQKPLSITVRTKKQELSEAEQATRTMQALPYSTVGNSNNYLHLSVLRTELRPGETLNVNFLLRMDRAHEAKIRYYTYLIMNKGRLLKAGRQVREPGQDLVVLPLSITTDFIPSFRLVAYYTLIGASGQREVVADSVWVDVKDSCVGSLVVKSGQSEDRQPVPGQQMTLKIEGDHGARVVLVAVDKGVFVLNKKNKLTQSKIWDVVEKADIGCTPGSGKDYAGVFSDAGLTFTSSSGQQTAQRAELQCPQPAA
T3 sequence (P01024 749-1663 limits assumed, chain 2 of 2): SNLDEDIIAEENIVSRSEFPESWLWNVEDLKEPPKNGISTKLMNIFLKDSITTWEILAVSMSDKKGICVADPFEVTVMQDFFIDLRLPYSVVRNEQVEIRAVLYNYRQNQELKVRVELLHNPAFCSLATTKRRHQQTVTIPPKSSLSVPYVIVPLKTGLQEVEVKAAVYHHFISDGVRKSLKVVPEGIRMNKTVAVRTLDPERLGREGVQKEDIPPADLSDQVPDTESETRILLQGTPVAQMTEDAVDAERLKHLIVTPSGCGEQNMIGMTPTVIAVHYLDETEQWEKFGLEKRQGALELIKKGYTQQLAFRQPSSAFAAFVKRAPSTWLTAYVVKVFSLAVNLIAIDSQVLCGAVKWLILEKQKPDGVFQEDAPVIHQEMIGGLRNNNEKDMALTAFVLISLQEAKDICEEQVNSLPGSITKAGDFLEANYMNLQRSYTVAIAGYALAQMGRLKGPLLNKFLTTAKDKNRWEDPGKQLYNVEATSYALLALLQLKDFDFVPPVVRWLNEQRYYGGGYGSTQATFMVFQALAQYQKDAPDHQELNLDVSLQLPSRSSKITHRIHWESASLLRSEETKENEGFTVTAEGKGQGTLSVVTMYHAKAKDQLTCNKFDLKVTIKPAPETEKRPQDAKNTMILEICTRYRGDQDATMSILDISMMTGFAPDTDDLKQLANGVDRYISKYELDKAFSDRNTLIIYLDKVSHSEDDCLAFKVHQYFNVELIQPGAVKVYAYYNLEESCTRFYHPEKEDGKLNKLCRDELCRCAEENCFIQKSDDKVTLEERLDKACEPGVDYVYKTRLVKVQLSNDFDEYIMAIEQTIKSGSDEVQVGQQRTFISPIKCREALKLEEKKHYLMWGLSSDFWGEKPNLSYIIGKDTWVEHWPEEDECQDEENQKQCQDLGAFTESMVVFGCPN
The test can be described thus: direct ELISA, plate coated with purified human C3b. As to the method:
as §2

T1 sequence (P01024 23-1663): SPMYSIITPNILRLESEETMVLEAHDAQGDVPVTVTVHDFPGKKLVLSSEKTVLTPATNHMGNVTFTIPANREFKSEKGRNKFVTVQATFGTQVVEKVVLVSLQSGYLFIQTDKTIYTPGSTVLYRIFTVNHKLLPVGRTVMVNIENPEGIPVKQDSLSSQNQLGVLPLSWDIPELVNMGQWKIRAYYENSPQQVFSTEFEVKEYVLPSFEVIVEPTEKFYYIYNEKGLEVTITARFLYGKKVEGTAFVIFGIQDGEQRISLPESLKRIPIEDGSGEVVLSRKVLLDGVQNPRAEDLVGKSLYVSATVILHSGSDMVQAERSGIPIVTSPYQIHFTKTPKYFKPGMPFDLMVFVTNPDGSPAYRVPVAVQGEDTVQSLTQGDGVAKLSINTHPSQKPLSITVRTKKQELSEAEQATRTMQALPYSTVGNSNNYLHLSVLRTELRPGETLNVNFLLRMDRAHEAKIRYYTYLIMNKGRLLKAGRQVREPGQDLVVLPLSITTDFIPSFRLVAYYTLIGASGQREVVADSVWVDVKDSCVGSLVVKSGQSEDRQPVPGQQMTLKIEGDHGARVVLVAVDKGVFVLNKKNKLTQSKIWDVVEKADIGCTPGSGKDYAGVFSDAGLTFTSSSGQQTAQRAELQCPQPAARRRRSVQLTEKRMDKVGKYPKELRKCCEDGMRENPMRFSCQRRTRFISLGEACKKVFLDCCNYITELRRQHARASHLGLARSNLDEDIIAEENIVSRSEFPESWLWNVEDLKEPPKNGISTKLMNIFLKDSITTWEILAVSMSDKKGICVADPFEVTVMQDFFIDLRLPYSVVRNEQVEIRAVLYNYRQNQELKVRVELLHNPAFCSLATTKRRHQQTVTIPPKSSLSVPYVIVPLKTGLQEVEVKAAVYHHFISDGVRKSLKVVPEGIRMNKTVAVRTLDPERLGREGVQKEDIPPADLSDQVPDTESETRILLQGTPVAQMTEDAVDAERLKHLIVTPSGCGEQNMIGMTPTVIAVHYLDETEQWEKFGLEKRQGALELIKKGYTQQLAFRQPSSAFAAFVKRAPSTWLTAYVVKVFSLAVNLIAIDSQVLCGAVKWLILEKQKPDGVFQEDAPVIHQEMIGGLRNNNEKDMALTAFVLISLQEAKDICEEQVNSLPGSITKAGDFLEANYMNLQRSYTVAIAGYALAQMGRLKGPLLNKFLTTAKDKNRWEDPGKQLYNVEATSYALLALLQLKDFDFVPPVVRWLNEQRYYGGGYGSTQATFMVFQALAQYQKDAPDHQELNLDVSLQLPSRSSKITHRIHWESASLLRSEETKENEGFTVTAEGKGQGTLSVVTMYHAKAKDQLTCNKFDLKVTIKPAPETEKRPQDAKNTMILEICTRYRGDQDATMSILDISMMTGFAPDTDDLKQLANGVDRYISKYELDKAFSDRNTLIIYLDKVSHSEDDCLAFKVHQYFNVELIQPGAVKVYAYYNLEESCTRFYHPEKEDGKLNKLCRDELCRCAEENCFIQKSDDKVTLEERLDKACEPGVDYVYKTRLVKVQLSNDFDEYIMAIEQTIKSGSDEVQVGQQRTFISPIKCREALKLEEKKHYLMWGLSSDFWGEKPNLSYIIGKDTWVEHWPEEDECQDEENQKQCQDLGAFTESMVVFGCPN

B1: M0251 (VHH)
VHH: EVQLVESGGGLVQAGGSLRLSCVASGHTFGNWAMGWFRQAPGKEREFVGAIRWSVGTTNYRDSVKGRFAISRDNARNTVYLQMNRLKPEDTAVYYCAAGTPFVLARINGYDYWGQGTQVTVSS
notes: Wild-type llama VHH domain; also called anti-C3 antibody M0251
As to B1, the “IC50 (read off the curve)” value in the test with human complement C3 [1] is around 4 nM; with human complement C3 [3] it was around 20 nM. For the same molecule, in the test with cynomolgus monkey C3, the EC50 (read off the curve) (as a rule, the midpoint of the concentration-response curve) was around 5 nM. In the test with human complement C3 [2], the “inhibition of classical, lectin and alternative complement pathways in human serum (Wieslab Complement system Screen, C5b-C9 neoantigen)” value (shortened to “inhibition of classical”) is at least 90%.

B2: M0122 (antibody, V domains shown)
VH: QSVKESGGRLVTPGTPLTLTCTVSGFSLYNYAMNWVRQAPGKGLEWIGIINTDGNTNYASWAKGRFTISTTSSTTVDLKITSPTTEDTATYFCPRAVGYHHHALDPWGPGTLVTVSS
VL: ELVLTQSPSVSAALGASAKLTCTLSSAHKTYTIDWYQQQQGEAPRYLMQLKSDGSYTKGTGVPDRFSGSSSGADRYLIIPSVQADDEADYYCGTDYGGGYVFGGGTQLTVTG
notes: Wild-type rabbit VH/VL from a rabbit scFv phage library; ELISA detection used an anti-human Kappa HRP or an anti-His Tag HRP antibody; also called anti-C3 antibody M0122
As to B2, the Kd (as a rule, the equilibrium constant for the complex coming apart) with human complement C3 [4] turned out to be 0.0528 nM. Further, the koff (usually the rate constant with which the complex falls apart) with human complement C3 [4] was 4.7e-06 s⁻¹. In addition, the kon – broadly, a measure of how fast the partners come together – with human complement C3 [4] came out at 89000 M⁻¹ s⁻¹. Further, the “EC50 (read off the curve)” value with human complement C3 [5] is around 0.03 µg/mL; in the test with human complement C3b it was around 0.04 µg/mL; in the test with cynomolgus monkey C3 it was around 2 nM. For the same molecule, in the test with human complement C3 [6], the “IC50 (read off the curve)” value is around 20 nM. The “inhibition of classical” value with human complement C3 [2] is at least 90%.

B3: M0123 (antibody, V domains shown)
VH: QSVKESEGRLVTPGTPLTLTCTASGFTIGSYHMSWVRQAPGKGLEWIGIIYTDGNTDYANWAKGRFTISKTSTTMDLKMTSLTAADTATYFCARRGYADYGYTFNLWGQGTLVTISS
VL: ELVLTQPASVQVNLGQTVSLTCTADTLSRNYASWYQQKPGQAPVLLIYRDTSRPSGVPDRFSGSSSGNTATLTISGAQAGDEADYYCATGDGSGSSYQFVFGGGTQLTVTG
notes: Wild-type rabbit VH/VL from a rabbit scFv phage library; A separate 'scFv-derivative of M0123 (26 kDa)' was used only in the Bruch's membrane diffusion test; also called anti-C3 antibody M0123
As to B3, in the test with human complement C3 [2], the “inhibition of classical” value is at least 90%. For the same molecule, the “IC50 (read off the curve)” value in the test with human complement C3 [3] was around 9 nM.

B4: M0124 (antibody, V domains shown)
VH: QSVKESGGRLVTPGTPLTLTCTVSGIDLSRYWMNWVRQAPGKGLEWIGYITTNDKTYYANWAKGRYTISKTSSTTVDLKMTSLTTEDTATYFCARRSSGAYDIWGPGTLVTISS
VL: QPVLTQSPSASATLGASAKLTCTLSSAHKTYYIEWYQQQQGEAPRYLMQLKSDGTYTKGTGVPDRFSGSSSGADRYLIISSVQAEDEADYICGVTGGNVYVFGGGTQLTVTG
notes: Wild-type rabbit VH/VL from a rabbit scFv phage library; ELISA detection used an anti-human Kappa HRP or an anti-His Tag HRP antibody; also called anti-C3 antibody M0124
Take B4: the Kd with human complement C3 [4] was determined as 0.0124 nM. The same molecule had a koff with human complement C3 [4] of 5.18e-05 s⁻¹. Further, the on-rate (kon) with human complement C3 [4] is 4.16e+06 M⁻¹ s⁻¹. In addition, the “EC50 (read off the curve)” value was around 0.07 µg/mL with human complement C3 [5], around 0.04 µg/mL in the test with human complement C3b and around 3 nM with cynomolgus monkey C3. The “inhibition of classical” value in the test with human complement C3 [2] is at least 90%.

B5: M0228 (VHH)
VHH: EVQLVESGGGLVQAGGSLRLSCAASGRTINDYTMGWFRQAPGKDREFVSAINWRGSSTYYADSVKGRFTISRDNAKKTIYLQMNLLKPEDTAVYYCARQVSPYVELTATAAYWGQGTQVTVSS
notes: Wild-type llama VHH domain; also called anti-C3 antibody M0228
In the test with human complement C3 [4], B5 registered a Kd of 0.199 nM, an off-rate (koff) of 0.000111 s⁻¹ and a kon of 557000 M⁻¹ s⁻¹. Besides, the “EC50 (read off the curve)” value in the test with human complement C3 [5] is around 0.03 µg/mL. Further, the “EC50 (read off the curve)” value with human complement C3b is around 0.03 µg/mL. Besides, the “inhibition of classical” value in the test with human complement C3 [2] is at least 90%. Further, the “IC50 (read off the curve)” value in the test with human complement C3 [3] is around 2 nM.
